One assay concerns the target HLA-A*02:17. Description: IEDB peptide-MHC binding, purified MHC/competitive/radioactivity; filed as Kd, often an IC50 or EC50 that approximates it; ≥ and ≤ were set here for values at or beyond the usual limits of such assays.
In assay [1] the target is HLA-A*02:01. Described as above.
The target in a further assay is HLA-A*02:03. Described as above.
Another assay concerns the target HLA-A*02:06. The description is as above.
Assay [2] concerns the target HLA-A*11:01. Briefly: IEDB peptide-MHC binding, purified MHC/competitive/fluorescence; ≥ and ≤ were set here for values at or beyond the usual limits of such assays.
For assay [3], the target named is HLA-A*26:01. Briefly: IEDB peptide-MHC binding, purified MHC/competitive/fluorescence; filed as Kd, often an IC50 or EC50 that approximates it; ≥ and ≤ were set here for values at or beyond the usual limits of such assays. Conditions: source organism: Escherichia coli O139:H28 str. E24377A.
Another assay deals with HLA-C*14:02. Briefly: IEDB peptide-MHC binding, purified MHC/direct/fluorescence; filed as Kd, often an IC50 or EC50 that approximates it; ≥ and ≤ were set here for values at or beyond the usual limits of such assays.
Another assay addresses HLA-A*31:01. The description is as above.
Another assay concerns the target HLA-B*07:02. The assay is described as above.
The target of assay [4] is HLA-A*02:01. The assay is described as above.
Another assay has as its target HLA-B*58:01. The description is as above.
The target of another assay is HLA-B*44:02. Described as above.
For the next assay, the target named is HLA-B*15:01. The assay is described as above.
The target in another assay is HLA-B*08:01. Described as above.
Another assay addresses HLA-B*27:05. The assay is described as above.
The target of assay [5] is HLA-A*26:01. The assay is described as above.
The target in assay [6] is HLA-A*03:01. The assay is described as above.
Another assay deals with HLA-B*40:01. The assay is described as above.
In another assay the target is HLA-A*01:01. The description is as above.
The target in a further assay is HLA-B*35:01. The assay is described as above.
Assay [7] concerns the target HLA-A*11:01. The assay is described as above.
In a further assay the target is HLA-A*69:01. The assay is described as above.
Another assay addresses HLA-B*51:01. Briefly: IEDB peptide-MHC binding, purified MHC/competitive/radioactivity; filed as Kd, often an IC50 or EC50 that approximates it; ≥ and ≤ were set here for values at or beyond the usual limits of such assays. Conditions: source organism: Dengue virus 3 Martinique/1243/1999.
A further assay addresses HLA-A*68:02. The assay is described as above. Conditions: source organism: Dengue virus 3 Martinique/1243/1999.
For assay [8], the target named is HLA-A*26:01. The assay is described as above. Conditions: source organism: Dengue virus 3 Martinique/1243/1999.
The target in assay [9] is HLA-A*03:01. Briefly: IEDB peptide-MHC binding, purified MHC/competitive/fluorescence; ≥ and ≤ were set here for values at or beyond the usual limits of such assays.
The target in the next assay is HLA-A*24:03. Description: IEDB peptide-MHC binding, purified MHC/direct/fluorescence; filed as Kd, often an IC50 or EC50 that approximates it; ≥ and ≤ were set here for values at or beyond the usual limits of such assays. Conditions: source organism: Pseudomonas aeruginosa.
Assay [10] has as its target HLA-A*02:01. Briefly: IEDB peptide-MHC binding, purified MHC/competitive/fluorescence; ≥ and ≤ were set here for values at or beyond the usual limits of such assays. Conditions: source organism: Zaire ebolavirus.
For another assay, the target named is HLA-A*24:02. Described as above. Conditions: source organism: Zaire ebolavirus.
The target in the next assay is HLA-A*02:12. Description: IEDB peptide-MHC binding, purified MHC/competitive/fluorescence; filed as Kd, often an IC50 or EC50 that approximates it; ≥ and ≤ were set here for values at or beyond the usual limits of such assays. Conditions: source organism: Cowpox virus.
For assay [11], the target named is HLA-A*02:01. The description is as above. Conditions: source organism: Cowpox virus.
Where [12] appears, read: source organism: Dengue virus 1 Singapore/S275/1990.
The mark [13] stands for this setting: source organism: Dengue virus 1 Brazil/97-11/1997.
[14] abbreviates: source organism: Vibrio vulnificus.
Setting [15] is: source organism: Dengue virus 2 Jamaica/1409/1983.
Setting [16] is: source organism: Dengue virus 3 China/80-2/1980.
Where [17] appears, read: source organism: Dengue virus 3 Martinique/1243/1999.
[18] abbreviates: source organism: Zaire ebolavirus.
The mark [19] stands for this setting: source organism: Giardia lamblia ATCC 50803.
The mark [20] stands for this setting: source organism: Pseudomonas aeruginosa.

As a reminder, the Kd is the equilibrium constant for the complex coming apart. As a reminder, the IC50 is the concentration needed to halve the response being measured.

FMTATPPGSV: the Kd with HLA-A*02:17 (setting [12]) is 3100 nM; with HLA-A*02:01 [1] (setting [12]) it was 72.8 nM; with HLA-A*02:03 (setting [13]) it was 1.67 nM; in the assay with HLA-A*02:06 (setting [13]), 671 nM.

In the assay with HLA-A*11:01 [2] (source organism: Vaccinia virus), NQVCIDILR had an IC50 of no less than 205000 nM.

Regarding ACPDNLLRL, the Kd with HLA-A*26:01 [3] was no less than 20000 nM; with HLA-C*14:02 (source organism: Escherichia coli O139:H28 str. E24377A) it was 1100 nM.

With DFPIFNQRY, the Kd with HLA-A*31:01 (setting [14]), in the assay with HLA-B*07:02 (setting [14]), with HLA-A*02:01 [4] (setting [14]), with HLA-B*58:01 (setting [14]), with HLA-B*44:02 (setting [14]) and with HLA-B*15:01 (setting [14]) was no less than 20000 nM in each case. The Kd with HLA-B*08:01 (setting [14]) was no less than 20000 nM; with HLA-B*27:05 (setting [14]), no less than 20000 nM; with HLA-A*26:01 [5] (setting [14]), 3830 nM; with HLA-A*03:01 [6] (setting [14]) it was no less than 20000 nM; in the assay with HLA-B*40:01 (setting [14]) it was no less than 20000 nM; in the assay with HLA-A*01:01 (setting [14]), no less than 20000 nM. In addition, the Kd with HLA-B*35:01 (setting [14]) was 118 nM; with HLA-A*11:01 [7] (setting [14]) it was no less than 20000 nM; with HLA-A*69:01 (setting [14]), no less than 20000 nM.

Take LLVISGVFPV: the Kd in the assay with HLA-A*02:17 (setting [15]) came to 2.75 nM; in the assay with HLA-A*02:01 [1] (setting [15]), 0.279 nM; with HLA-A*02:03 (setting [15]), 17 nM; with HLA-A*02:06 (setting [15]) it was 0.72 nM.

With FTMGVLCLAI, the dissociation constant Kd was 8620 nM in the assay with HLA-B*51:01; 132 nM with HLA-A*02:17 (setting [16]); 11.1 nM with HLA-A*68:02; 9.25 nM with HLA-A*02:03 (setting [17]); 1650 nM with HLA-A*26:01 [8]; 5.39 nM with HLA-A*02:06 (setting [17]).

In the case of KMNAKAATL, the Kd with HLA-C*14:02 (source organism: Mycobacterium tuberculosis variant bovis BCG str. Pasteur 1173P2) was determined as 146 nM.

For VLLLTIGLSL, the Kd with HLA-A*02:17 (setting [12]) worked out at 3910 nM; with HLA-A*02:01 [1] (setting [12]) it was 5.24 nM.

Turning to VKNEVNSFK, the IC50 in the assay with HLA-A*03:01 [9] (setting [18]) is 47100 nM; with HLA-A*11:01 [2] (setting [18]) it was 39100 nM.

Turning to QHTRRVSVL, the Kd was no less than 10000 nM with HLA-A*31:01 (setting [19]); no less than 20000 nM with HLA-B*07:02 (setting [19]); 10100 nM in the assay with HLA-A*02:01 [4] (setting [19]); no less than 20000 nM with HLA-B*44:02 (setting [19]); no less than 20000 nM with HLA-B*15:01 (setting [19]); 534 nM in the assay with HLA-B*08:01 (setting [19]). The dissociation constant Kd was 5180 nM with HLA-A*26:01 [5] (setting [19]); no less than 20000 nM in the assay with HLA-A*03:01 [6] (setting [19]); no less than 20000 nM with HLA-A*01:01 (setting [19]); 1300 nM in the assay with HLA-B*35:01 (setting [19]); no less than 20000 nM in the assay with HLA-A*11:01 [7] (setting [19]); no less than 20000 nM with HLA-A*69:01 (setting [19]).

Take IVLEFFMMV: the Kd with HLA-A*02:17 (setting [16]) was 131 nM; with HLA-A*68:02, 558 nM; in the assay with HLA-A*02:06 (setting [17]), 31.7 nM.

VVAVGGLAI: the Kd in the assay with HLA-A*24:03 was no less than 20000 nM; with HLA-A*31:01 (setting [20]) it was no less than 20000 nM; with HLA-B*07:02 (setting [20]), 251 nM; with HLA-A*02:01 [4] (setting [20]) it was no less than 20000 nM; with HLA-B*58:01 (setting [20]), no less than 20000 nM; with HLA-B*15:01 (setting [20]) it was 144 nM. Moreover, the Kd with HLA-B*08:01 (setting [20]), in the assay with HLA-B*27:05 (setting [20]), with HLA-A*26:01 [5] (setting [20]), in the assay with HLA-A*03:01 [6] (setting [20]), with HLA-B*40:01 (setting [20]) and in the assay with HLA-A*01:01 (setting [20]) was no less than 20000 nM throughout. Besides, the Kd with HLA-B*35:01 (setting [20]) is 6120 nM; with HLA-A*11:01 [7] (setting [20]) it was no less than 20000 nM.

As to KIGDFGLATVK, the IC50 in the assay with HLA-A*03:01 [9] (source organism: Homo sapiens) was found to be 415 nM; with HLA-A*11:01 [2] (source organism: Homo sapiens), 32 nM.

Turning to AVLYYHMMK, the IC50 with HLA-A*02:01 [10] is no less than 311000 nM; with HLA-A*03:01 [9] (setting [18]), 1970 nM; with HLA-A*11:01 [2] (setting [18]), 288 nM.

Turning to LPQTRWQAV, the Kd with HLA-A*24:03 is no less than 20000 nM; in the assay with HLA-A*31:01 (setting [20]) it was no less than 20000 nM; with HLA-B*07:02 (setting [20]), 28.3 nM; with HLA-A*02:01 [4] (setting [20]) it was no less than 20000 nM; in the assay with HLA-B*58:01 (setting [20]) it was no less than 20000 nM; with HLA-B*15:01 (setting [20]), no less than 20000 nM. The Kd is 189 nM with HLA-B*08:01 (setting [20]); no less than 20000 nM in the assay with HLA-B*27:05 (setting [20]); no less than 20000 nM in the assay with HLA-A*26:01 [5] (setting [20]); no less than 20000 nM in the assay with HLA-A*03:01 [6] (setting [20]); no less than 20000 nM with HLA-B*40:01 (setting [20]); no less than 20000 nM with HLA-A*01:01 (setting [20]). Further, the Kd was 88 nM with HLA-B*35:01 (setting [20]), no less than 20000 nM with HLA-A*11:01 [7] (setting [20]) and no less than 20000 nM in the assay with HLA-A*69:01 (setting [20]).

For LLTGGAMLFL, the results for the Kd with HLA-A*02:17 (setting [16]) and with HLA-A*02:01 [1] (setting [16]) were 347 nM and 47.4 nM, respectively.

ATAHGSTLA: the 50% inhibitory concentration (IC50) was 54300 nM in the assay with HLA-A*02:01 [10] and 43100 nM in the assay with HLA-A*11:01 [2] (setting [18]).

Take KMLMTGTLAV: the Kd is 444 nM in the assay with HLA-A*02:17 (setting [12]), 6.46 nM in the assay with HLA-A*02:01 [1] (setting [12]), 10 nM in the assay with HLA-A*02:03 (setting [13]) and 47.4 nM in the assay with HLA-A*02:06 (setting [13]).

For the sequence IYIEGLMHN, the values for the IC50 with HLA-A*03:01 [9] (setting [18]), in the assay with HLA-A*24:02 and with HLA-A*11:01 [2] (setting [18]) were no less than 211000 nM, 2630 nM and 36100 nM, respectively.

On to NMNNDSYYF, for which the Kd with HLA-A*02:12 was determined as 76.5 nM; in the assay with HLA-A*02:01 [11], 11.3 nM.

GTSNRTPTV: the IC50 in the assay with HLA-A*02:01 [10] is 1300 nM; with HLA-A*03:01 [9] (setting [18]), 57200 nM; in the assay with HLA-A*11:01 [2] (setting [18]), no less than 128000 nM.

(Values after the Immune Epitope Database (IEDB).)
